From article PMC12680543

Legend:
[1] = target: KLMT-1 (C. tropicalis)
[2] = target: KSS-1::Strep (C. tropicalis); assay: SEC-MALS; KSS-1::Strep–SKR-1 complex co-expressed in Sf9 and co-purified (StrepTrapXT ATP/Mg wash fraction, ResourceQ, Superdex 200 Increase 10/300 GL); 20 mM Tris pH 7.5, 150 mM NaCl; right-angle static light scattering

stoichiometry N [2]	Substance	half-life of KLMT-1::mNG (fluorescence time lapse of embryos) in kss-1(−) against kss-1(+) [1] [fold]
	3xFLAG::KSS-1 (natural protein)	2.9
1	SKR-1 (natural protein)	
